{"source": "patent US6730828B1", "about": "“Isolated nucleic acids encoding a wheat glutathione transferase, plants transformed therewith and methods of use thereof” (Aventis Agriculture Limited, priority 1997, dated 2004)", "key": {"[1]": {"experiment": "GST activity toward CDNB", "format": "biochemical", "procedure": "(§1) The purified isoenzymes were assayed for GST activity toward herbicides using the HPLC-based assays described by Edwards R. and Cole D. J. (Pesticide Biochemistry and Physiology Vol. 54, pp96-104 (1996)) and the results are presented in Table 2. […] These isoenzymes had additional activities as glutathione peroxidases able to reduce linoleic acid hydroperoxide, a major reaction product formed during membrane peroxidation in plants (Williamson and Beverly. J. Cereal Sci. 8, 1988, 155-163).\nTo confirm that TaGST1 encoded a GST, it was expressed as a fusion protein with beta-galactosidase using the pBluescript plasmid in E. coli strain SOLR. TaGST1 clones were inoculated into LB liquid medium and were grown overnight at 37/C on all orbital shaker in the presence of IPTG. Bacteria were then pelleted by centrifugation, lysed by sonication and assayed for GST activity toward CDNB and analysed by SDS-PAGE and Western blotting using the anti-TaGSTI-I serum. With all six TaGST1 clones, GST activity toward CDNB could be determined in the crude extracts in the range 30-50 nkat/mg crude lysate.\n(§2) To assay the recombinant fusion proteins for GST activity, the E. coli were grown in the presence of IPTG and then pelleted by centrifugation. The bacteria were then lysed by sonication and the protein precipitated using 80% ammonium sulphate. After resuspension and desalting, GSTs were purified by affinity chromatography. The WIC 3 fusion protein was purified using sulphobromophthalein-S-glutathione affinity chromatography (Mozer et al. Biochem. 22, 1983, 1068-1072) while the other WIC fusion proteins were purified using glutathione-agarose (Mannervik and Guthenberg. Methods Enzymol. 77 1981, 231-235).The purified enzymes were then assayed for GST activities toward herbicides (Table 3) and GST activities toward non-herbicide substrates and glutathione peroxidase activities toward organic hydroperoxides (Table 4).\nA polyclonal antiserum was raised in a rabbit to a mixture of TaGST1-2 and TaGST1-3. When tested against crude extracts from safener-treated wheat shoots the antiserum recognised both the 25 kDa TaGST1 subunit and the 26 kDa safener-inducible TaGST2 and TaGST3 subunits. The antiserum was then used in conjunction with the antiserum raised to TaGST1-1 to immuno screen the cDNA library prepared from fenchlorazole ethyl treated wheat shoots as described in example 1. Duplicate lifts were taken from the plated out library and the first blot screened with the antiserum raised against TaGST1-2 and TaGST1-3. The second blot was screened with the antiserum raised to TaGST1-1. Five plaques were identified from the first blot which were absent from the second blot corresponding to cDNAs encoding TaGST2 or TaGST3 like polypeptides and theses clones were purified and the respective plasmids sequenced. […] The other three clones ICC. ICP and ICV had identical DNA sequences (SEQ ID No. 17) and predicted amino acid sequence (SEQ ID No. 18). GST ICJ was sub-cloned into the pET 11a vector after using PCR to introduce a Nde 1 restriction site into the translation start site, using the primer 5′ AGGTAGTTACATATGGCCGGAGGA 3′ (SEQ ID No. 19) in the amplification. following sub-cloning, the sequence of GST ICJ was re-checked to ensure no PCR induced errors had been introduced. The recombinant GST ICJ was then expressed in E. coli and purified by S-hexylglutathione affinity chromatography. The purified GST ICJ was assayed for activities as a GST (Table 3) and as a glutathione peroxidase (Table 4). […] GST ICV was finally expressed as the respective beta-galactosidase fusion protein using the Bluescript plasmid and assayed for GST activity (Table 3 ) and glutathione peroxidase activity (Table 4) in crude bacterial lysates. […]"}, "[2]": {"experiment": "GST activity toward herbicide fluorodifen (HPLC-based assay)", "format": "biochemical", "procedure": "as §1, §2\n(§3) A polyclonal antiserum was raised in a rabbit to a mixture of TaGST1-2 and TaGST1-3. When tested against crude extracts from safener-treated wheat shoots the antiserum recognised both the 25 kDa TaGST1 subunit and the 26 kDa safener-inducible TaGST2 and TaGST3 subunits. The antiserum was then used in conjunction with the antiserum raised to TaGST1-1 to immuno screen the cDNA library prepared from fenchlorazole ethyl treated wheat shoots as described in example 1. Duplicate lifts were taken from the plated out library and the first blot screened with the antiserum raised against TaGST1-2 and TaGST1-3. The second blot was screened with the antiserum raised to TaGST1-1. Five plaques were identified from the first blot which were absent from the second blot corresponding to cDNAs encoding TaGST2 or TaGST3 like polypeptides and theses clones were purified and the respective plasmids sequenced. […] The other three clones ICC. ICP and ICV had identical DNA sequences (SEQ ID No. 17) and predicted amino acid sequence (SEQ ID No. 18). GST ICJ was sub-cloned into the pET 11a vector after using PCR to introduce a Nde 1 restriction site into the translation start site, using the primer 5′ AGGTAGTTACATATGGCCGGAGGA 3′ (SEQ ID No. 19) in the amplification. following sub-cloning, the sequence of GST ICJ was re-checked to ensure no PCR induced errors had been introduced. The recombinant GST ICJ was then expressed in E. coli and purified by S-hexylglutathione affinity chromatography. The purified GST ICJ was assayed for activities as a GST (Table 3) and as a glutathione peroxidase (Table 4). […] GST ICV was finally expressed as the respective beta-galactosidase fusion protein using the Bluescript plasmid and assayed for GST activity (Table 3 ) and glutathione peroxidase activity (Table 4) in crude bacterial lysates. The specific activity of GST ICV toward these substrates was then calculated by I) subtracting the low levels of GST and GPOX activity present due the endogenous activities in the E. coli and ii) determining the proportion of protein in the lysate present as recombinant GST ICV from SDS-PAGE analysis, by densitometry analysis of polypeptides stained with Coomassie blue."}, "[3]": {"tested_on": "wheat shoots", "experiment": "Enhancement of GST isoenzyme expression in wheat shoots by safener fenchlorazole-ethyl", "format": "in vivo, Triticum aestivum L. var. Hunter", "procedure": "Wheat seeds (Triticum aestivum L. var. Hunter) were imbibed in a 10 mg/l solution of the herbicide safener fenchlorazole-ethyl and then grown in an environmental growth room with further root-applied watering treatments of 5 mg/l fenchlorazole ethyl applied as required. At 10 days after imbibing, the shoot tissue was harvested and extracted prior to precipitation of the protein with ammonium sulphate (80% saturation). The total protein extract was then applied in the presence of 1 M ammonium sulphate to a phenyl-Sepharose column. The bound GSTs were then recovered, firstly by reducing the ammonium sulphate concentration to 0 M to yield the polar GST fraction, which represented 61% of the recovered activity toward 1-chloro-2,4-dinitrobenzene (CDNB). The remaining 39% of the GST activity was then recovered by adding ethylene glycol (50% v/v) to the running buffer to yield the hydrophobic GST fraction. […] The component polypeptides in the active fractions were then analysed by silver staining after resolution by sodium dodecyl sulphate polyacrylamide gel electrophoresis (SDS-PAGE). It was concluded that in fenchlorazole-ethyl-treated wheat the polar GSTs were composed of 25 kDa and 26 kDa polypeptides, while the hydrophobic fraction contained 25 kDa, 26 kDa and 24 kDa polypeptides. Further analysis by reversed-phase HPLC confirmed the subunit compositions (FIG. 2). Based on the combined analyses by Q-sepharose, HPLC and SDS-PAGE these GST polypeptides were named as described in Table 1, which also contains details of how these subunits associate together to form the active dimers found in plants and the relative abundance of these subunits in extracts from unsafened and fenchlorazole-ethyl treated ([…]) plants."}, "[4]": {"experiment": "GST activity toward herbicide metolachlor (HPLC-based assay)", "format": "biochemical", "procedure": "as §1, §2, §3"}, "[5]": {"experiment": "GST activity toward herbicide fenoxaprop-ethyl (HPLC-based assay)", "format": "biochemical", "procedure": "as §1, §2, §3"}, "[6]": {"experiment": "Glutathione peroxidase activity toward cumene hydroperoxide", "format": "biochemical", "procedure": "as §2, §3"}, "[7]": {"conditions": "isoenzymes purified from fenchlorazole-ethyl-treated wheat shoots"}, "[8]": {"conditions": "recombinant wheat GST expressed in E. coli, affinity purified"}, "[9]": {"conditions": "recombinant wheat GST expressed in E. coli, affinity purified, ± standard error"}, "[10]": {"conditions": "beta-galactosidase fusion in crude bacterial lysates, E. coli background subtracted, corrected for proportion of recombinant protein"}}}
{"molecule": "TaGST1-1: wheat GST isoenzyme purified from safener-treated shoots, homodimer of 25 kDa TaGST1 subunits (SEQ ID No. 2/SEQ ID No. 2) (protein, homodimer; Triticum aestivum L.) chain 1: MAGEKGLVLLDFWVSPFGQRVRIALAEKGLPYEYAEEDLMAGKSDRLLRANPVHKKIPVLLHDGRAVNESLIILQYLEEAFPDAPALLPSDPYARAQARFWADYVDKKVYDCGSRLWKLKGEPQAQARAEMLDILKTLDGALGDKPFFGGDKFGFVDAAFAPFTAWFHSYERYGEFSLPEVAPKIAAWAKRCGERESVAKSLYSPDKVYDFIGLLKKKYGIE chain 2: MAGEKGLVLLDFWVSPFGQRVRIALAEKGLPYEYAEEDLMAGKSDRLLRANPVHKKIPVLLHDGRAVNESLIILQYLEEAFPDAPALLPSDPYARAQARFWADYVDKKVYDCGSRLWKLKGEPQAQARAEMLDILKTLDGALGDKPFFGGDKFGFVDAAFAPFTAWFHSYERYGEFSLPEVAPKIAAWAKRCGERESVAKSLYSPDKVYDFIGLLKKKYGIE", "values": [{"measurement": "GST activity toward CDNB", "setting": "[1]; [7]", "value": "1,528 nkat.mg^−1"}, {"measurement": "GST activity toward fluorodifen", "setting": "[2]; [7]", "value": 0.97, "unit": "nkat.mg^−1"}, {"measurement": "% enhancement by safener", "setting": "[3]; fenchlorazole-ethyl treated (safened) versus unsafened wheat shoots", "value": "30-50%"}, {"measurement": "Increase in expression following exposure to fenchlorazole-ethyl", "setting": "[3]; leaves of wheat seedlings", "value": "approximately 50%"}, {"measurement": "GST activity toward metolachlor", "setting": "[4]; [7]", "value": 0.11, "unit": "nkat.mg^−1"}, {"measurement": "GST activity toward fenoxaprop-ethyl", "setting": "[5]; [7]", "value": 0, "unit": "nkat.mg^−1"}]}
{"molecule": "ICR: recombinant safener-inducible type III wheat GST clone, SEQ ID No. 15, amino acid SEQ ID No. 16 (protein, Triticum aestivum L.) MAGDGELKLLGVWTSPFVIRVRVVLNLKSLPYEYVEESLGSKSALLLGSNPVHQSVPVLLHGGRPVNESQVIVQYIDEVWAGAGPSVLPADPYERATARFWAAYVDDKVGSAWTGMLFSCKTEEERAEAVSRAVAALETLEGAFAECSKGKAFFGGDAIGFVDVVLGGYLGWFGAIDKIIGRRLIDPARTPLLARWEERFRAADAAKGVVPDDADKMLEFLPTVLAWIAGKAK", "values": [{"measurement": "GST activity toward CDNB", "setting": "[1]; [8]", "value": 8139, "unit": "nkat.mg^−1"}, {"measurement": "GST activity toward fluorodifen", "setting": "[2]; [9]", "value": "0.037 ± 0.002", "unit": "nkat.mg^−1"}, {"measurement": "GST activity toward metolachlor", "setting": "[4]; [9]", "value": "0.000 ± 0.000", "unit": "nkat.mg^−1"}, {"measurement": "GST activity toward fenoxaprop-ethyl", "setting": "[5]; [9]", "value": "0.028 ± 0.001", "unit": "nkat.mg^−1"}]}
{"molecule": "TA 27: recombinant wheat GST from cloquintocet-mexyl-induced cDNA, SEQ ID No. 13, amino acid SEQ ID No. 14, expressed from pET 11a (protein, Triticum aestivum L.) MEPMKVYGWAVSPWMARVLVSLEEAGADYELVPMSRNGGDHRRPEHLARNPFGEIPVLEYGGLTLYQSRAIARHILRKHKPGLLGAGSLEESAMVDVWVDVDAHHLEPVLKPIVWNCIINPFVGRDVDQGLVDESVEKLKKLLEVYEARLSSNKYLAGDFVSFADLTHFSFMRYFMATEHAVVLDAYPHVKAWWKALLARPSVKKVIAGMPPDFGFGSGRIP", "values": [{"measurement": "GST activity toward CDNB", "setting": "[1]; [8]", "value": 237, "unit": "nkat.mg^−1"}, {"measurement": "GST activity toward fluorodifen", "setting": "[2]; [9]", "value": "0.034 ± 0.003", "unit": "nkat.mg^−1"}, {"measurement": "GST activity toward metolachlor", "setting": "[4]; [9]", "value": "0.063 ± 0.006", "unit": "nkat.mg^−1"}, {"measurement": "Glutathione peroxidase activity toward cumene hydroperoxide", "setting": "[6]; recombinant wheat GST, affinity purified, ± standard error (n = 3)", "value": "3.6 ± 0.4 absorbance change at 340 nm.mg^−1"}, {"measurement": "GST activity toward fenoxaprop-ethyl", "setting": "[5]; [9]", "value": "0.036 ± 0.004", "unit": "nkat.mg^−1"}]}
{"molecule": "ICC/V/P: recombinant type III wheat GST; clones ICC, ICP and ICV with identical sequence, SEQ ID No. 17, amino acid SEQ ID No. 18 (protein, Triticum aestivum L.) MAGGEELKLLGWWAPGVSPYVLRAQMALAVKGLSYDYLPEDRWSTSDLLIASNPVYKKVPVLIHNGRPVCESLLILEYLDDAVGLAGNGKPILPADPYSRAVARFWAAYVNDKLFPSCTGILKTTKQEERAGKMEETLSGLRHLEAVMAECSEGEAEAPFFGGDAIGFLDIALGCYLPWFEAAGRLAGLGPIIDPARTPKLAAWAERFSVAEPIKALLPGVDKLEEYITTALYPKWNIAVTGN", "values": [{"measurement": "GST activity toward CDNB", "setting": "[1]; [10]", "value": 30, "unit": "nkat.mg^−1"}, {"measurement": "GST activity toward fluorodifen", "setting": "[2]; [10]", "value": "0.000 ± 0.000", "unit": "nkat.mg^−1"}, {"measurement": "GST activity toward metolachlor", "setting": "[4]; [10]", "value": "0.000 ± 0.000", "unit": "nkat.mg^−1"}, {"measurement": "Glutathione peroxidase activity toward cumene hydroperoxide", "setting": "[6]; [10]", "value": "0.84 ± 0.04 absorbance change at 340 nm.mg^−1"}, {"measurement": "GST activity toward fenoxaprop-ethyl", "setting": "[5]; [10]", "value": "0.074 ± 0.008", "unit": "nkat.mg^−1"}]}
